Test results taken from publication PMC2701625.

Target: purified human hsp90 (human) (UniProt P07900)
Test: cross-linking

Substance “purified human hsp90 (from UniProt P07900 1-732) (natural protein)” has a stoichiometry N of 2.
